# According to US11459369B2, “Fusion protein for alpha-melanocyte stimulating hormone and preparation method and use thereof” (LANZHOU UNIVERSITY, priority 2015, dated 2022):
# Key:
# [1] = Validation of the ability to cross the BBB: level of fusion protein in hippocampal tissue homogenate by HSA ELISA; type: in vivo; conditions: mice, 1 μm/kg single intravenous injection, hippocampal tissue 6 h after administration
# Experimental: Validation of the Ability to Across BBB of PTD-HSA-L-α-MSH
# HSA Elisa Kit (cygnustechnologies).
# 10 mice (18-22 g) were used in the experiment, and were purchased from Laboratory Animal Center of Lanzhou University.
# Mice were housed in groups of at most five animals per cage with clean water and food available ad libitum. PTD-HSA-L-α-MSH or HSA-L-α-MSH were given at a dosage of 1 μm/kg through a single intravenous injection in 150 μL volume. Mice were anesthetized 6 h after drug administration. The hippocampal tissue was harvest and homogenized immediately. Finally the level of PTD-HSA-L-α-MSH or HSA-L-α-MSH in hippocampal tissue homogenate was tested by ELISA.
# TNF-α = assay: Experimental brain inflammation of mouse induced by LPS: TNF-α in hippocampal tissue homogenate by ELISA; type: in vivo; conditions: mice
# Source text: Neuroprotection of TAT-HSA-α-MSH on Experimental Brain Inflammation in Mice
# TNF-a Elisa Kit (Dakewei, China).
# 20 mice (18-22 g) were used in the experiment, and were purchased from Laboratory Animal Center of Lanzhou University.
# Lipopolysaccharide (LPS), a gram negative bacterial endotoxin, is the cell wall component of gram negative bacteria. Within the CNS, LPS challenge triggers central inflammatory responses, which results in releasing of proinflammatory mediators such as TNF-α. Therefore, to determine whether the described PTD-HSA-L-α-MSH can inhibit the production of pro-inflammatory factors in vivo, experimental brain inflammation of mouse induced by LPS was established, in which TNF-α was analyzed to detect the efficacy of PTD-HSA-L-α-MSH.
# Mice were housed in groups of at most five animals per cage with clean water and food available ad libitum. The mice in control group were injected with 150 μL saline two times. The mice in LPS group were injected with 150 μL LPS at the dose of 5 mg/kg, and then injected with 150 μL saline. The mice in PTD-HSA-L-α-MSH+LPS group were injected with 150 μL LPS at the dose of 5 mg/kg, and then injected with 150 μL PTD-HSA-L-α-MSH at the dose of 1 μm/kg. The mice in α-MSH+LPS group were injected with 150 μL LPS at the dose of 5 mg/kg, and then injected with 150 μL α-MSH at the dose of 1 μm/kg. Mice were anesthetized 2 h after drug administration. […]
# [2] = rat, iv administration, full length peptide; cited from earlier work
Substance,"PTD-HSA-L-α-MSH(ng/mL), level in hippocampal tissue homogenate tested by ELISA [1] [ng/mL]","TNF-α (pg/mg protein) in hippocampal tissues tested by ELISA (TNF-α; LPS 5 mg/kg then substance 1 μm/kg, hippocampal tissue 2 h after administration) [pg/mg protein]","effect on TNF-α increase compared with LPS group (TNF-α; LPS 5 mg/kg, single dose of 1 μm/kg intraperitoneally)",half-life [2]
"HSA-L-α-MSH: fusion protein of HSA, linker and α-MSH without PTD; amino acid sequence SEQ ID NO:10, about 69 KDa; comparator",0.06 ± 0.02,–,–,–
"α-Melanocyte stimulating hormone [α-MSH, reference compound]",–,155.8 ± 10.3,could not be suppressed,a few minutes
